Experiment [1] concerns the target T1, human CD70 expressed on parental (WT) Jurkat cells (human, UniProt P32970 1-193).
T1 sequence: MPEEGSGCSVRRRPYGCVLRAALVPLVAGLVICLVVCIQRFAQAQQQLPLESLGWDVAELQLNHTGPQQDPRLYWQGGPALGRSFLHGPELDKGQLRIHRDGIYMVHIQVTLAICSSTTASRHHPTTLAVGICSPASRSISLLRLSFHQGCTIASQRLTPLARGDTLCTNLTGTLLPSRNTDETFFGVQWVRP
Briefly: cell-based or functional assay.

Experiment [2] deals with T2, recombinant biotinylated human CD70 protein (human, UniProt P32970 39-193, biotinylated (site not stated)).
T2 construct: also called recombinant biotinylated hCD70 protein
T2 sequence: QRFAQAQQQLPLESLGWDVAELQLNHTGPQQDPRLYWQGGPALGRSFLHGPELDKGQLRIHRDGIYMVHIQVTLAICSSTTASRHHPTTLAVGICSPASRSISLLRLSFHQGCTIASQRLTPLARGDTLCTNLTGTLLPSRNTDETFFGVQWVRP
Briefly: flow cytometry: CAR-transduced Jurkat cells incubated with recombinant biotinylated human CD70, streptavidin-PE; percent of cells binding. The method, then: On Day 5, transduced cells were stained with human anti-CD69 antibody conjugated to PE-Cy7 and acquired on a flow cytometer to obtain percentage of CD69+ population for each CAR. […] Activation ratios (WT activation/KO activation) and protein binding were used to rank CARs.
Table 7: Activation ratio and protein binding of phage CARs were determined in the Jurkat screen. Activation ratio was used for in vitro characterization of CARs. Activation ratio was determined by calculating the ratio of the percentage of CD69 expression on WT Jurkat cells transduced with CD70 CAR (WT) to that on CD70 knockout Jurkat cells transduced with CD70 CAR (KO). A higher activation ratio indicates target-dependent activation. […] Protein binding values indicate the percentage of CD3+ CAR T cells that bind to human CD70 protein.

B1: P08G02 CD70-specific CAR (other)
chain: EVQLVQSGAEVKKPGESLKISCKGSGYTFPSSWIGWVRQMPGKGLEWMGIIYPDTSHTRYSPSFQGQVTISADKSISTAYLQWSSLKASDTAMYYCARASYFDRGTGYSSWWMDVWGQGTLVTVSSGGGGSGGGGSGGGGSGGGGSELDIQMTQSPSSLSASVGDRVTITCRASQSIYDYLHWYQQKPGKAPKLLIYDASNLQSGVPSRFSGSGSGTDFTLTISSLQPEDFATYYCQQSYTTPLFTFGQGTKVEIKTTTPAPRPPTPAPTIASQPLSLRPEACRPAAGGAVHTRGLDFACDIYIWAPLAGTCGVLLLSLVITLYCKRGRKKLLYIFKQPFMRPVQTTQEEDGCSCRFPEEEEGGCELRVKFSRSADAPAYQQGQNQLYNELNLGRREEYDVLDKRRGRDPEMGGKPRRKNPQEGLYNELQKDKMAEAYSEIGMKGERRRGKGHDGLYQGLSTATKDTYDALHMQALPPR
notes: Chimeric antigen receptor on transduced Jurkat cells; the signal peptide is left out
Take B1: the “Activation ratio (WT/KO)” value in experiment [1] came to 2.11. Also, the “Protein binding (%)” value in experiment [2] was 77.8%.

B2: P08A02 CD70-specific CAR (other)
chain: EVQLVQSGAEVKKPGESLKISCKGSGYTFTNYWIAWVRQMPGKGLEWMGIIYPDGSDTRYSPSFQGQVTISADKSISTAYLQWSSLKASDTAMYYCARDITSWYYGEPAFDIWGQGTLVTVSSGGGGSGGGGSGGGGSGGGGSELQSVLTQPPSASGTPGQRVTISCSGSSSNIGSNYVYWYQQLPGTAPKLLIYRNNQRPSGVPDRFSGSKSGTSASLAISGLRSEDEADYYCATWDDSLGSPVFGTGTKLTVLTTTPAPRPPTPAPTIASQPLSLRPEACRPAAGGAVHTRGLDFACDIYIWAPLAGTCGVLLLSLVITLYCKRGRKKLLYIFKQPFMRPVQTTQEEDGCSCRFPEEEEGGCELRVKFSRSADAPAYQQGQNQLYNELNLGRREEYDVLDKRRGRDPEMGGKPRRKNPQEGLYNELQKDKMAEAYSEIGMKGERRRGKGHDGLYQGLSTATKDTYDALHMQALPPR
notes: as for B1
In the case of B2, the “Activation ratio (WT/KO)” value in experiment [1] is 14.4. Besides, the “Protein binding (%)” value in experiment [2] turned out to be 20.7%.

B3: P12B09 CD70-specific CAR (other)
chain: EVQLLESGGGLVQPGGSLRLSCAASGFTFSQYSMSWVRQAPGKGLEWVSAISGGGVSTYYADSVKGRFTISRDNSKNTLYLQMNSLRAEDTAVYYCASDISDSGGSHWYFDYWGQGTLVTVSSGGGGSGGGGSGGGGSGGGGSELDIQMTQSPSSLSASVGDRVTITCRASQYIGRYLNWYQQKRGKAPKLLIHGATSLASGVPSRFSGSGSGTDFTLTISSLQPEDFATYYCQQSYSTTSPTFGQGTKVEIKTTTPAPRPPTPAPTIASQPLSLRPEACRPAAGGAVHTRGLDFACDIYIWAPLAGTCGVLLLSLVITLYCKRGRKKLLYIFKQPFMRPVQTTQEEDGCSCRFPEEEEGGCELRVKFSRSADAPAYQQGQNQLYNELNLGRREEYDVLDKRRGRDPEMGGKPRRKNPQEGLYNELQKDKMAEAYSEIGMKGERRRGKGHDGLYQGLSTATKDTYDALHMQALPPR
notes: as for B1
As to B3, the “Activation ratio (WT/KO)” value in experiment [1] was determined as 4.34. For the same molecule, in experiment [2], the “Protein binding (%)” value worked out at 5.74%.

B4: P07D03 CD70-specific CAR (other)
chain: EVQLVQSGAEVKKPGESLKISCKGSGYRFTSYWIGWVRQMPGKGLEWMGSIYPDDSDTRYSPSFQGQVTISADKSISTAYLQWSSLKASDTAMYYCASSTVDYPGYSYFDYWGQGTLVTVSSGGGGSGGGGSGGGGSGGGGSELQSVLTQPPSASGTPGQRVTISCSGSRSNIGSNYVYWYQQLPGTAPKLLIYRNNQRPSGVPDRFSGSKSGTSASLAISGLRSEDEADYYCASWDGSLSAVVFGTGTKLTVLTTTPAPRPPTPAPTIASQPLSLRPEACRPAAGGAVHTRGLDFACDIYIWAPLAGTCGVLLLSLVITLYCKRGRKKLLYIFKQPFMRPVQTTQEEDGCSCRFPEEEEGGCELRVKFSRSADAPAYQQGQNQLYNELNLGRREEYDVLDKRRGRDPEMGGKPRRKNPQEGLYNELQKDKMAEAYSEIGMKGERRRGKGHDGLYQGLSTATKDTYDALHMQALPPR
notes: as for B1
As to B4, the “Activation ratio (WT/KO)” value in experiment [1] worked out at 3.04. In addition, the “Protein binding (%)” value in experiment [2] is 0.68%.

B5: P08E02 CD70-specific CAR (other)
chain: EVQLVQSGAEVKKPGESLKISCKGSGYSFTSSWIGWVRQMPGKGLEWMGIIYPGDSDTRYSPSFQGQVTISADKSISTAYLQWSSLKASDTAMYYCAKGLSQAMTGFGFDYWGQGTLVTVSSGGGGSGGGGSGGGGSGGGGSELDIQMTQSPSSLSASVGDRVTITCRASQSISRYLNWYQQKPGKAPKLLIYAASILQTGVPSRFSGSGSGTDFTLTISSLQPEDFATYYCQQSYSTTMWTFGQGTKVEIKTTTPAPRPPTPAPTIASQPLSLRPEACRPAAGGAVHTRGLDFACDIYIWAPLAGTCGVLLLSLVITLYCKRGRKKLLYIFKQPFMRPVQTTQEEDGCSCRFPEEEEGGCELRVKFSRSADAPAYQQGQNQLYNELNLGRREEYDVLDKRRGRDPEMGGKPRRKNPQEGLYNELQKDKMAEAYSEIGMKGERRRGKGHDGLYQGLSTATKDTYDALHMQALPPR
notes: as for B1
Turning to B5, in experiment [1], the “Activation ratio (WT/KO)” value was 3.29. In addition, the “Protein binding (%)” value in experiment [2] came to 57.1%.

B6: P12F02 CD70-specific CAR (other)
chain: EVQLLESGGGLVQPGGSLRLSCAASGFTFSSYAMSWVRQAPGKGLEWVSTISGTGGTTYYADSVKGRFTISRDNSKNTLYLQMNSLRAEDTAVYYCAKVRAGIDPTASDVWGQGTLVTVSSGGGGSGGGGSGGGGSGGGGSELQSVLTQPPSASGTPGQRVTISCSGSTSNIGRNYVYWYQQLPGTAPKLLIYRTNQRPSGVPDRFSGSKSGTSASLAISGLRSEDEADYYCAAWDDSLSGRVFGTGTKLTVLTTTPAPRPPTPAPTIASQPLSLRPEACRPAAGGAVHTRGLDFACDIYIWAPLAGTCGVLLLSLVITLYCKRGRKKLLYIFKQPFMRPVQTTQEEDGCSCRFPEEEEGGCELRVKFSRSADAPAYQQGQNQLYNELNLGRREEYDVLDKRRGRDPEMGGKPRRKNPQEGLYNELQKDKMAEAYSEIGMKGERRRGKGHDGLYQGLSTATKDTYDALHMQALPPR
notes: as for B1
B6: the “Activation ratio (WT/KO)” value in experiment [1] came to 12. Further, in experiment [2], the “Protein binding (%)” value was determined as 2.39%.

B7: P08F08 CD70-specific CAR (other)
chain: EVQLVQSGAEVKKPGESLKISCKGSGYGFTSYWIGWVRQMPGKGLEWMGIIHPDDSDTKYSPSFQGQVTISADKSISTAYLQWSSLKASDTAMYYCASSYLRGLWGGYFDYWGQGTLVTVSSGGGGSGGGGSGGGGSGGGGSELQSVLTQPPSASGTPGQRVTISCSGSSSNIGSNYVNWYQQLPGTAPKLLIYGDYQRPSGVPDRFSGSKSGTSASLAISGLRSEDEADYYCATRDDSLSGSVVFGTGTKLTVLTTTPAPRPPTPAPTIASQPLSLRPEACRPAAGGAVHTRGLDFACDIYIWAPLAGTCGVLLLSLVITLYCKRGRKKLLYIFKQPFMRPVQTTQEEDGCSCRFPEEEEGGCELRVKFSRSADAPAYQQGQNQLYNELNLGRREEYDVLDKRRGRDPEMGGKPRRKNPQEGLYNELQKDKMAEAYSEIGMKGERRRGKGHDGLYQGLSTATKDTYDALHMQALPPR
notes: as for B1
As to B7, the “Activation ratio (WT/KO)” value in experiment [1] is 3.42. The “Protein binding (%)” value in experiment [2] stood at 35.9%.

B8: P02B10 CD70-specific CAR (other)
chain: EVQLLESGGGLVQPGGSLRLSCAASGFAFSNYAMSWVRQAPGKGLEWVSAIRGGGGSTYYADSVKGRFTISRDNSKNTLYLQMNSLRAEDTAVYYCARDFISGTWYPDYWGQGTLVTVSSGGGGSGGGGSGGGGSGGGGSELQSVLTQPPSASGTPGQRVTISCSGSSSNIGSNYVYWYQQLPGTAPKLLIYRNNQRPSGVPDRFSGSKSGTSASLAISGLRSEDEADYYCAAWDDSLSGVVFGGGTKLTVLTTTPAPRPPTPAPTIASQPLSLRPEACRPAAGGAVHTRGLDFACDIYIWAPLAGTCGVLLLSLVITLYCKRGRKKLLYIFKQPFMRPVQTTQEEDGCSCRFPEEEEGGCELRVKFSRSADAPAYQQGQNQLYNELNLGRREEYDVLDKRRGRDPEMGGKPRRKNPQEGLYNELQKDKMAEAYSEIGMKGERRRGKGHDGLYQGLSTATKDTYDALHMQALPPR
notes: as for B1
On to B8, for which, in experiment [1], the “Activation ratio (WT/KO)” value was 2.81. Besides, the “Protein binding (%)” value in experiment [2] is 77.9%.

The record behind these values is US20190233528A1 (published 2019).
